Source: patent US20220306764A1 (NATIONAL INSTITUTE OF BIOTECHNOLOGY IN THE NEGEV, published 2022)

B1: NB7 (VHH)
VHH: QVQLQESGGGSVQAGGSLRLSCTAPGYTDSNYYMSWFRQAPGKEREWVAGVNTGRGSTSYADSVKGRFTISQDNAKNTMFLQMNSLKPEDTAIYYCAVAACHFCDSLPKTQDEYILWGQGTQVTVSS
notes: also called nanobody 7; anti-PSMA NB7; not shown: His tag (NBs purified on Ni-NTA and detected with anti-His)
B2: NB8 (VHH)
VHH: QVQLQESGGGSVQAGGSLRLSCARSGWPYSTYSMNWFRQAPGKEREAVAGISSTMSGIIFAESKAGQFTISQDNAKNTVYLQMNNLKPEDTAIYYCAARRDYSLSSSSDDFDYWGQGTQVTVSS
notes: also called nanobody 8; PDB 6XXO; not shown: His tag (NBs purified on Ni-NTA and detected with anti-His)
B3: NB37 (VHH)
VHH: QVQLQESGGGSVEAGGSLRLSCARSGWPYSTYSMNWFRQAPGKEREAVAGISSTMSGIIFAESKAGQFTISQDNAKNTVYLQMNNLKPEDTAIYYCAARRDYSLSSSSDDFDYWGQGTQVTVSS
notes: also called nanobody 37; PDB 6XXP; not shown: His tag (NBs purified on Ni-NTA and detected with anti-His)
B4: NB13 (VHH)
VHH: QVQLQESGGGSVQTGGSLRLSCAASGYTASFSWIGYFRQAPGKEREGVAVINVGVGSTYYADSVKGRFTISRDNTENTISLEMNSLKPEDTGLYYCAGSLRWSRPPNPISEDAYNYWGQGTQVTVSS
notes: also called nanobody 13; not shown: His tag (NBs purified on Ni-NTA and detected with anti-His)

molecular target: T1, purified extracellular domain of PSMA (prostate-specific membrane antigen), residues 44-750 (UniProt Q04609 44-750); test: SPR (ProteOn XPR36), NB immobilised, soluble PSMA as analyte, 1:1 Langmuir, 25 C
T1 construct: range 44-750; The limits 44-750 are stated for the immunogen; Docking used PDB 1Z8L; also called soluble PSMA; monomeric PSMA
Description: The bottom curve in each sensogram represents the lowest concentration, while the top curve represents the highest concentration. A FACS analysis (n=3) was used to determine the binding of these NBs (0.1-1,000 nM) to PC3-PIP (PSMA⁺) cells (1E) and to PC3-flu (PSMA⁻) cells (1F). For convenience, each fluorescence value was normalized to the fluorescence values at the highest and lowest concentrations of PC3-PIP cells.
The affinity of each NB to PSMA was determined by using surface plasmon resonance (SPR) spectroscopy on a ProteOn XPR36 chip (Bio-Rad, CA). The chip was activated by using sulfo-NHS (0.1 M N-hydroxysuccinimide) and EDC [0.4 M 1-ethyl-3-(3-dimethylaminopropyl)-carbodiimide]. Each NB (0.2 μg) was immobilized in a 10 mM sodium acetate buffer, pH 5.0, at a flow rate of 30 μl/min. Bovine serum albumin (BSA) (3 μg) was immobilized on the chip as a negative control. Unbound esters were deactivated with 1 M ethanolamine HCl at pH 8.5. […] During this time, the association between the NBs and PSMA was measured. The dissociation was measured while flowing 50 μ1/min PBST (namely, a phosphate-buffered saline with 0.005% Tween). For each protein complex, a binding sensogram was generated by subtracting the values of the PSMA response to BSA from those of the PSMA response to the NBs. The dissociation constant (KD) was determined from the Langmuir 1:1 kinetic model. The temperature throughout the binding measurements was set at 25° C.

T1 sequence (Q04609 44-750 limits assumed): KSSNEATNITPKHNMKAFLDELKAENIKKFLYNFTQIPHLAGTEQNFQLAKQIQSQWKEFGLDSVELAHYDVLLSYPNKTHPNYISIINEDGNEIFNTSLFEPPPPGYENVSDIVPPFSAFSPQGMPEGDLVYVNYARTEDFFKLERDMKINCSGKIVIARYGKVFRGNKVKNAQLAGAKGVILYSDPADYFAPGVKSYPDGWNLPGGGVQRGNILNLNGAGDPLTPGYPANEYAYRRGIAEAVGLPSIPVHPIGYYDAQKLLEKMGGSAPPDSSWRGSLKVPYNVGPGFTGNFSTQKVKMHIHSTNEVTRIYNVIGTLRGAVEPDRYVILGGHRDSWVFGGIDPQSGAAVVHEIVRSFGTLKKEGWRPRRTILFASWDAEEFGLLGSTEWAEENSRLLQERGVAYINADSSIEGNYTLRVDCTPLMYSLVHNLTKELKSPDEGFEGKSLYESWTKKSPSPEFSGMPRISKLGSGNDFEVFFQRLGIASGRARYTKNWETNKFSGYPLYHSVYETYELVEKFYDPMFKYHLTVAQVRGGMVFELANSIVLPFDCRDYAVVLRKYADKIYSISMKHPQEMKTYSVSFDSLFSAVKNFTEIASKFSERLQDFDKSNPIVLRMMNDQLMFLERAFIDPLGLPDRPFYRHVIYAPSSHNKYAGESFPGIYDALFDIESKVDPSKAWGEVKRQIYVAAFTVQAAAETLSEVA

Going from B1 to B2, the Kd rises from 0.055 nM to 6 nM (110-fold). The first binds more tightly here.

Going from B3 to B4, the Kd falls from 3.4 nM to 0.6 nM (5.7-fold). The second binds more tightly here.

First: B1
Second: B2
The koff of the first is 3.1-fold lower: 3.9e-05 s⁻¹ for the first, 0.00012 s⁻¹ for the second.

Going from B3 to B4, the koff falls from 7.5e-05 s⁻¹ to 2.2e-05 s⁻¹ (3.4-fold).

Compared with B1, B2 is 36-fold lower in kon: 710000 M⁻¹ s⁻¹ for the first, 20000 M⁻¹ s⁻¹ for the second.

First: B3
Second: B4
The kon of the first is 1.6-fold lower: 22000 M⁻¹ s⁻¹ for the first, 36000 M⁻¹ s⁻¹ for the second.
